Substrate in the data set: CCCCCCCC/C=C\CCCCCCCC(=O)OCC(O)CO
Put plainly: glycerol release, enzymatic glycerol kit, saturation curve. It counts as biochemical, Saccharomyces cerevisiae. The conditions noted are these: pH 7.5, 37 °C, 20 min, substrate complexed to defatted BSA 1:1.

B1: Yju3p (Saccharomyces cerevisiae S288C) (protein)
chain: MAPYPYKVQTTVPELQYENFDGAKFGYMFWPVQNGTNEVRGRVLLIHGFGEYTKIQFRLMDHLSLNGYESFTFDQRGAGVTSPGRSKGVTDEYHVFNDLEHFVEKNLSECKAKGIPLFMWGHSMGGGICLNYACQGKHKNEISGYIGSGPLIILHPHTMYNKPTQIIAPLLAKFLPRVRIDTGLDLKGITSDKAYRAFLGSDPMSVPLYGSFRQIHDFMQRGAKLYKNENNYIQKNFAKDKPVIIMHGQDDTINDPKGSEKFIQDCPSADKELKLYPGARHSIFSLETDKVFNTVFNDMKQWLDKHTTTEAKP
On to B1, for which the Km (in general, the concentration of substrate that gives half-maximal velocity) worked out at 260 µM.

The values above are taken from article PMC2911655.
